Laboratory results reported in patent US12043670B2, “Anti-BCMA antibody-drug conjugates and methods of use” (Eisai R&D Management Co., Ltd., priority 2020, dated 2024).

B1: AB200-R1H32-R2Vk27 (antibody)
heavy: QVQLVQSGAEVKKPGSSVKVSCKASGGTFSNYWMHWVRQAPGQGLEWMGATYRSHSDTYYNQKFKSRVTITADKSTSTAYMELSSLRSEDTAVYYCARGAIYHGYDVIDNWGQGTLVTVSSASTKGPSVFPLAPSSKSTSGGTAALGCLVKDYFPEPVTVSWNSGALTSGVHTFPAVLQSSGLYSLSSVVTVPSSSLGTQTYICNVNHKPSNTKVDKKVEPKSC
light: DIQMTQSPSSLSASVGDRVTITCRASQSISSYLNWYQQKPGKAPKLLIYATSNIQSGVPSRFSGSGSGTDFTLTISSLQPEDFATYYCQQYRKIPWSFGQGTKLEIKRTVAAPSVFIFPPSDEQLKSGTASVVCLLNNFYPREAKVQWKVDNALQSGNSQESVTEQDSKDSTYSLSSTLTLSKADYEKHKVYACEVTHQGLSSPVTKSFNRGEC
B2: AB200-R1H32-R2Vk38 (antibody)
heavy: QVQLVQSGAEVKKPGSSVKVSCKASGGTFSNYWMHWVRQAPGQGLEWMGATYRSHSDTYYNQKFKSRVTITADKSTSTAYMELSSLRSEDTAVYYCARGAIYHGYDVIDNWGQGTLVTVSSASTKGPSVFPLAPSSKSTSGGTAALGCLVKDYFPEPVTVSWNSGALTSGVHTFPAVLQSSGLYSLSSVVTVPSSSLGTQTYICNVNHKPSNTKVDKKVEPKSC
light: DIQMTQSPSSLSASVGDRVTITCRASQSISSYINWYQQKPGKAPKLLIYATSNLQSGVPSRFSGSGSGTDFTLTISSLQPEDFATYYCQQFRKIPWTFGQGTKLEIKRTVAAPSVFIFPPSDEQLKSGTASVVCLLNNFYPREAKVQWKVDNALQSGNSQESVTEQDSKDSTYSLSSTLTLSKADYEKHKVYACEVTHQGLSSPVTKSFNRGEC
B3: AB200-R1H32-R2Vk37 (antibody)
heavy: QVQLVQSGAEVKKPGSSVKVSCKASGGTFSNYWMHWVRQAPGQGLEWMGATYRSHSDTYYNQKFKSRVTITADKSTSTAYMELSSLRSEDTAVYYCARGAIYHGYDVIDNWGQGTLVTVSSASTKGPSVFPLAPSSKSTSGGTAALGCLVKDYFPEPVTVSWNSGALTSGVHTFPAVLQSSGLYSLSSVVTVPSSSLGTQTYICNVNHKPSNTKVDKKVEPKSC
light: DIQMTQSPSSLSASVGDRVTITCRASQSISSYINWYQQKPGKAPKLLIYATSNLQSGVPSRFSGSGSGTDFTLTISSLQPEDFATYYCQQYRKIPWSFGQGTKLEIKRTVAAPSVFIFPPSDEQLKSGTASVVCLLNNFYPREAKVQWKVDNALQSGNSQESVTEQDSKDSTYSLSSTLTLSKADYEKHKVYACEVTHQGLSSPVTKSFNRGEC
B4: AB200-R1H32-R2Vk28 (antibody)
heavy: QVQLVQSGAEVKKPGSSVKVSCKASGGTFSNYWMHWVRQAPGQGLEWMGATYRSHSDTYYNQKFKSRVTITADKSTSTAYMELSSLRSEDTAVYYCARGAIYHGYDVIDNWGQGTLVTVSSASTKGPSVFPLAPSSKSTSGGTAALGCLVKDYFPEPVTVSWNSGALTSGVHTFPAVLQSSGLYSLSSVVTVPSSSLGTQTYICNVNHKPSNTKVDKKVEPKSC
light: DIQMTQSPSSLSASVGDRVTITCRASQSISSYLNWYQQKPGKAPKLLIYATSNIQSGVPSRFSGSGSGTDFTLTISSLQPEDFATYYCQQFRKIPWTFGQGTKLEIKRTVAAPSVFIFPPSDEQLKSGTASVVCLLNNFYPREAKVQWKVDNALQSGNSQESVTEQDSKDSTYSLSSTLTLSKADYEKHKVYACEVTHQGLSSPVTKSFNRGEC
B5: AB200-R1H32-R2Vk39 (antibody)
heavy: QVQLVQSGAEVKKPGSSVKVSCKASGGTFSNYWMHWVRQAPGQGLEWMGATYRSHSDTYYNQKFKSRVTITADKSTSTAYMELSSLRSEDTAVYYCARGAIYHGYDVIDNWGQGTLVTVSSASTKGPSVFPLAPSSKSTSGGTAALGCLVKDYFPEPVTVSWNSGALTSGVHTFPAVLQSSGLYSLSSVVTVPSSSLGTQTYICNVNHKPSNTKVDKKVEPKSC
light: DIQMTQSPSSLSASVGDRVTITCRASQSISSYINWYQQKPGKAPKLLIYATSNIQSGVPSRFSGSGSGTDFTLTISSLQPEDFATYYCQQYRRLPWSFGQGTKLEIKRTVAAPSVFIFPPSDEQLKSGTASVVCLLNNFYPREAKVQWKVDNALQSGNSQESVTEQDSKDSTYSLSSTLTLSKADYEKHKVYACEVTHQGLSSPVTKSFNRGEC
B6: AB200-R1H32-R2Vk18 (antibody)
heavy: QVQLVQSGAEVKKPGSSVKVSCKASGGTFSNYWMHWVRQAPGQGLEWMGATYRSHSDTYYNQKFKSRVTITADKSTSTAYMELSSLRSEDTAVYYCARGAIYHGYDVIDNWGQGTLVTVSSASTKGPSVFPLAPSSKSTSGGTAALGCLVKDYFPEPVTVSWNSGALTSGVHTFPAVLQSSGLYSLSSVVTVPSSSLGTQTYICNVNHKPSNTKVDKKVEPKSC
light: DIQMTQSPSSLSASVGDRVTITCRASQSISSYINWYQQKPGKAPKLLIYAASSLQSGVPSRFSGSGSGTDFTLTISSLQPEDFATYYCQQFRKIPWTFGQGTKLEIKRTVAAPSVFIFPPSDEQLKSGTASVVCLLNNFYPREAKVQWKVDNALQSGNSQESVTEQDSKDSTYSLSSTLTLSKADYEKHKVYACEVTHQGLSSPVTKSFNRGEC
B7: AB200-R1H26-R2Vk48 (antibody)
heavy: QVQLVQSGAEVKKPGSSVKVSCKASGGSFSNYWMHWVRQAPGQGLEWMGATYRIHSDTFYNQKFKGRVTITADKSTSTAYMELSSLRSEDTAVYYCARGAIYHGYDVLDNWGQGTLVTVSSASTKGPSVFPLAPSSKSTSGGTAALGCLVKDYFPEPVTVSWNSGALTSGVHTFPAVLQSSGLYSLSSVVTVPSSSLGTQTYICNVNHKPSNTKVDKKVEPKSC
light: DIQMTQSPSSLSASVGDRVTITCRASQSISSYINWYQQKPGKAPKLLIYATSNLQIGVPSRFSGSGSGTDFTLTISSLQPEDFATYYCQQFRKIPWTFGQGTKLEIKRTVAAPSVFIFPPSDEQLKSGTASVVCLLNNFYPREAKVQWKVDNALQSGNSQESVTEQDSKDSTYSLSSTLTLSKADYEKHKVYACEVTHQGLSSPVTKSFNRGEC
B8: AB200-R1H26-R2Vk7 (antibody)
heavy: QVQLVQSGAEVKKPGSSVKVSCKASGGSFSNYWMHWVRQAPGQGLEWMGATYRIHSDTFYNQKFKGRVTITADKSTSTAYMELSSLRSEDTAVYYCARGAIYHGYDVLDNWGQGTLVTVSSASTKGPSVFPLAPSSKSTSGGTAALGCLVKDYFPEPVTVSWNSGALTSGVHTFPAVLQSSGLYSLSSVVTVPSSSLGTQTYICNVNHKPSNTKVDKKVEPKSC
light: DIQMTQSPSSLSASVGDRVTITCRASQSISSYINWYQQKPGKAPKLLIYATSNIQSGVPSRFSGSGSGTDFTLTISSLQPEDFATYYCQQFRKLPWSFGQGTKLEIKRTVAAPSVFIFPPSDEQLKSGTASVVCLLNNFYPREAKVQWKVDNALQSGNSQESVTEQDSKDSTYSLSSTLTLSKADYEKHKVYACEVTHQGLSSPVTKSFNRGEC
B9: AB200-R1H26-R2Vk17 (antibody)
heavy: QVQLVQSGAEVKKPGSSVKVSCKASGGSFSNYWMHWVRQAPGQGLEWMGATYRIHSDTFYNQKFKGRVTITADKSTSTAYMELSSLRSEDTAVYYCARGAIYHGYDVLDNWGQGTLVTVSSASTKGPSVFPLAPSSKSTSGGTAALGCLVKDYFPEPVTVSWNSGALTSGVHTFPAVLQSSGLYSLSSVVTVPSSSLGTQTYICNVNHKPSNTKVDKKVEPKSC
light: DIQMTQSPSSLSASVGDRVTITCRASQSISSYINWYQQKPGKAPKLLIYAASSLQSGVPSRFSGSGSGTDFTLTISSLQPEDFATYYCQQYRKIPWSFGQGTKLEIKRTVAAPSVFIFPPSDEQLKSGTASVVCLLNNFYPREAKVQWKVDNALQSGNSQESVTEQDSKDSTYSLSSTLTLSKADYEKHKVYACEVTHQGLSSPVTKSFNRGEC
B10: AB200-R1H26-R2Vk6 (antibody)
heavy: QVQLVQSGAEVKKPGSSVKVSCKASGGSFSNYWMHWVRQAPGQGLEWMGATYRIHSDTFYNQKFKGRVTITADKSTSTAYMELSSLRSEDTAVYYCARGAIYHGYDVLDNWGQGTLVTVSSASTKGPSVFPLAPSSKSTSGGTAALGCLVKDYFPEPVTVSWNSGALTSGVHTFPAVLQSSGLYSLSSVVTVPSSSLGTQTYICNVNHKPSNTKVDKKVEPKSC
light: DIQMTQSPSSLSASVGDRVTITCRASQSISSYINWYQQKPGKAPKLLIYATSNLQSGVPSRFSGSGSGTDFTLTISSLQPEDFATYYCQQFRKLPWSFGQGTKLEIKRTVAAPSVFIFPPSDEQLKSGTASVVCLLNNFYPREAKVQWKVDNALQSGNSQESVTEQDSKDSTYSLSSTLTLSKADYEKHKVYACEVTHQGLSSPVTKSFNRGEC
B11: AB200-R1H26-R2Vk4 (antibody)
heavy: QVQLVQSGAEVKKPGSSVKVSCKASGGSFSNYWMHWVRQAPGQGLEWMGATYRIHSDTFYNQKFKGRVTITADKSTSTAYMELSSLRSEDTAVYYCARGAIYHGYDVLDNWGQGTLVTVSSASTKGPSVFPLAPSSKSTSGGTAALGCLVKDYFPEPVTVSWNSGALTSGVHTFPAVLQSSGLYSLSSVVTVPSSSLGTQTYICNVNHKPSNTKVDKKVEPKSC
light: DIQMTQSPSSLSASVGDRVTITCRASQSISSYLNWYQQKPGKAPKLLIYATSNIQSGVPSRFSGSGSGTDFTLTISSLQPEDFATYYCQQFRKLPWSFGQGTKLEIKRTVAAPSVFIFPPSDEQLKSGTASVVCLLNNFYPREAKVQWKVDNALQSGNSQESVTEQDSKDSTYSLSSTLTLSKADYEKHKVYACEVTHQGLSSPVTKSFNRGEC
B12: AB200-R1H26-R2Vk8 (antibody)
heavy: QVQLVQSGAEVKKPGSSVKVSCKASGGSFSNYWMHWVRQAPGQGLEWMGATYRIHSDTFYNQKFKGRVTITADKSTSTAYMELSSLRSEDTAVYYCARGAIYHGYDVLDNWGQGTLVTVSSASTKGPSVFPLAPSSKSTSGGTAALGCLVKDYFPEPVTVSWNSGALTSGVHTFPAVLQSSGLYSLSSVVTVPSSSLGTQTYICNVNHKPSNTKVDKKVEPKSC
light: DIQMTQSPSSLSASVGDRVTITCRASQSISSYINWYQQKPGKAPKLLIYATSNLQIGVPSRFSGSGSGTDFTLTISSLQPEDFATYYCQQFRKLPWSFGQGTKLEIKRTVAAPSVFIFPPSDEQLKSGTASVVCLLNNFYPREAKVQWKVDNALQSGNSQESVTEQDSKDSTYSLSSTLTLSKADYEKHKVYACEVTHQGLSSPVTKSFNRGEC

assay: ThermoFluor thermostability (Tm); type: physicochemical; details: Fab fragment; light chain clone paired with heavy chain AB200_R1_VH32

Molecule	Tm [°C]
B1	76.729
B2	80.727
B3	76.708
B4	79.945
B5	76.077
B6	79.872

same assay, conditions: Light chain screening Round 2; Fab, paired with heavy chain AB200_R1_VH26

Molecule	Tm [°C]
B7	83.862
B8	81.764
B9	78.993
B10	82.640
B11	81.832
B12	82.921
